± gives the standard deviation of the averaged measurements.
These sequences were tested on Saccharomyces cerevisiae (assay: protein stability index of tFT-peptide fusion (C-terminal peptide) (PSI (0-1 scale)); higher = more stable (slower turnover)). Settings: genetic background: wild type; temperature: 30 C.
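Note: PSI is a weighted mean of sequencing reads over stability bins, variants kept only with over 10 reads, mCherry proximal and sfGFP distal, peptide attached via GGGS linker.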

Sequence | protein stability index
SLASPPPLHCTL | 0.659 ± 0.034
SLAVATAVLLYP | 0.666 ± 0.035
SLAYPPPSPPPA | 0.68 ± 0.054
SLCFSVFFPFFF | 0.5443 ± 0.0027
SLCHLFYGSVEG | 0.668 ± 0.055
SLEYIFSCWSLY | 0.711 ± 0.1
SLFASTFFVWPS | 0.725 ± 0.014
SLFPAETPPKYR | 0.656 ± 0.025
SLFRYPLALPFP | 0.711 ± 0.012
SLFSLLRSPSPF | 0.806 ± 0.18
SLGRVSRLSFQH | 0.784 ± 0.041
SLGSISSATLLA | 0.6117 ± 0.0026
SLIACQGPIPCG | 0.648 ± 0.038
SLIFVSLLGAYD | 0.623 ± 0.056
SLLAGSSLPFSP | 0.696 ± 0.0074
SLLAPPALTAPS | 0.674 ± 0.05
SLLPPPPPPAPS | 0.627 ± 0.011
SLLSRYFLLPLL | 0.545 ± 0.061
SLPFSPPTRSSL | 0.758 ± 0.052
SLPPPPLLPRPL | 0.686 ± 0.061
SLPSPIPPPSLL | 0.739 ± 0.29
SLPSSPPPSPPL | 0.7172 ± 0.0043
SLRFLFPSSRFF | 0.664 ± 0.015

Sequence | protein stability index
SLRLAHSPPDEV | 0.749 ± 0.17
SLRLFIHTIFSR | 0.695 ± 0.061
SLRLPPPRRLPV | 0.658 ± 0.12
SLRMMKTTNAWT | 0.661 ± 0.0077
SLRPPLHSPSPS | 0.674 ± 0.016
SLRPSELFRPLN | 0.724 ± 0.014
SLRSPPPPPGIL | 0.756 ± 0.046
SLSIFLRDALGF | 0.74 ± 0.035
SLSIHPCHFGPS | 0.671 ± 0.03
SLSPGLPPVLLT | 0.666 ± 0.0067
SLSPPLLPPSPP | 0.643 ± 0.018
SLSPPPLSPSPP | 0.627 ± 0.022
SLVCGFAVGGFW | 0.659 ± 0.044
SLVPCFLSFLYP | 0.5752 ± 0.0017
SLVSGPRPPSAF | 0.737 ± 0.089
SLVVSPRQLLPR | 0.704 ± 0.029
SLWWRWQATIRR | 0.714 ± 0.13
SLYERYGRFNSS | 0.656 ± 0.027
SLYPRALDFGPM | 0.692 ± 0.033
SLYYPRLVSSSL | 0.732 ± 0.11
SMGGRVGDLACQ | 0.725 ± 0.042
SMSPHKCSVCFC | 0.644 ± 0.045
SMSPPLSLFPSF | 0.841 ± 0.096

Sequence | protein stability index
SMSSERYIKRGN | 0.702 ± 0.011
SNFRDISLHAAG | 0.684 ± 0.042
SNGVCVGGSESA | 0.674 ± 0.082
SNIDIEAELNKT | 0.728 ± 0.031
SNIEKKKTIKRK | 0.6929 ± 0.0069
SNKGIKNIKKKT | 0.728 ± 0.0084
SNQHKKKNQLRE | 0.693 ± 0.086
SNRASVCKSGKR | 0.6768 ± 0.0017
SNRLIKKKKKRI | 0.715 ± 0.036
SNWLMTYIIRRK | 0.641 ± 0.012
SPAAGGRVGVRR | 0.715 ± 0.021
SPAPIRFLWTIP | 0.59 ± 0.028
SPAPPLSRPPPH | 0.695 ± 0.0081
SPASPPLPAPPP | 0.68 ± 0.032
SPFLPLHRPRML | 0.653 ± 0.018
SPFSPLPSPRPR | 0.723 ± 0.018
SPGCPNRGAFEI | 0.871 ± 0.07
SPHRQIRKRFEK | 0.714 ± 0.026
SPITSLSGGTKR | 0.631 ± 0.064
SPKGRVISRRQP | 0.602 ± 0.034
SPLFLVIRLPST | 0.62 ± 0.055
SPLLASPSHLSL | 0.71 ± 0.083
SPLLSSPSPFSL | 0.751 ± 0.095

Sequence | protein stability index
SPLPPARSVPPP | 0.646 ± 0.067
SPLPPPPPVPLP | 0.652 ± 0.082
SPLPPSPSPPTP | 0.725 ± 0.22
SPLRHIPPLHTP | 0.686 ± 0.1
SPPAPPVSPPPP | 0.744 ± 0.042
SPPAPSLPTFPP | 0.617 ± 0.096
SPPARLLASLSP | 0.798 ± 0.2
SPPCSPSALSHL | 0.728 ± 0.053
SPPHAPPPVPSL | 0.751 ± 0.026
SPPHPAALPSSP | 0.7005 ± 0.0032
SPPILPRGLYSH | 0.637 ± 0.0097
SPPLLPPPSLPP | 0.628 ± 0.0056
SPPLPAPPPPIP | 0.60339 ± 3.2e-05
SPPLPSAPPPPR | 0.664 ± 0.027
SPPLQFLPYPFF | 0.685 ± 0.09
SPPLRTFPVTLP | 0.644 ± 0.1
SPPPALLPPLFP | 0.73 ± 0.064
SPPPFLLPRLFS | 0.639 ± 0.096
SPPPISPSLPPL | 0.728 ± 0.029
SPPPNSLPPPPP | 0.7181 ± 0.0043
SPPPPHPPPPAD | 0.651 ± 0.098
SPPPPPLTHSPS | 0.627 ± 0.15
SPPPPPPHPSHP | 0.692 ± 0.027

Sequence | protein stability index
SPPPPRLPSPTP | 0.744 ± 0.054
SPPPPSPTCPHL | 0.652 ± 0.035
SPPPPTSPRPLT | 0.709 ± 0.0085
SPPPRATLPRPP | 0.689 ± 0.085
SPPPRPLKLFPP | 0.599 ± 0.025
SPPPSPSPPPPL | 0.739 ± 0.049
SPPPSVCPRFPI | 0.761 ± 0.057
SPPRPPSLPPPG | 0.67 ± 0.071
SPPRSRPPPSLQ | 0.679 ± 0.015
SPPSLLATVYFF | 0.7065 ± 0.0015
SPPSPPPPPPPS | 0.691 ± 0.061
SPQKCKSAPSSC | 0.6746 ± 0.0031
SPRGPLVICHHP | 0.745 ± 0.075
SPRHNALHFTLV | 0.644 ± 0.032
SPRLLHPLPSFL | 0.7114 ± 0.0066
SPRLPPPLFLPL | 0.638 ± 0.02
SPRLQAFPGSRA | 0.713 ± 0.032
SPRQARSFLTSS | 0.756 ± 0.026
SPSGLPPPLTYP | 0.667 ± 0.034
SPSLLLSFLSFF | 0.665 ± 0.071
SPSLVVRVSFEF | 0.595 ± 0.025
SPSPFRPAPSLH | 0.7048 ± 0.0061
SPSPPPTPGSPP | 0.718 ± 0.15

Sequence | protein stability index
SPTLPLTRRHPR | 0.718 ± 0.035
SPTNNTSTQSQT | 0.686 ± 0.012
SPTPRLGGPPPI | 0.723 ± 0.015
SPVFSDFLLSLC | 0.642 ± 0.028
SPVFYYCPGYVD | 0.702 ± 0.05
SPVSLLSFRLLL | 0.573 ± 0.022
SPVTDRRKRRNN | 0.666 ± 0.012
SPYLGTYAPVIK | 0.6804 ± 0.0032
SPYLRISGLVFC | 0.557 ± 0.045
SQKNTQLEADGK | 0.661 ± 0.0093
SQLGDGLLGEGV | 0.697 ± 0.044
SQPIRAMILRVP | 0.53 ± 0.00096
SQQFGSILPGEL | 0.694 ± 0.018
SQRRGLLGRFRI | 0.695 ± 0.011
SQTPPPAPSGHH | 0.69 ± 0.099
SRALSPRAPFGN | 0.76 ± 0.15
SRASATTLRLAT | 0.66 ± 0.015
SRASATYLFNLH | 0.622 ± 0.012
SRAVTDRGWSPR | 0.68 ± 0.028
SRAYDKSRNISI | 0.731 ± 0.062
SRCIIGILTRNF | 0.6836 ± 0.0035
SRCPLLNGIGFR | 0.6471 ± 0.0025
SRCYKETGKVRE | 0.736 ± 0.0071

Sequence | protein stability index
SRDSGLIDPRFS | 0.66973 ± 0.00044
SRFIDLLFPSSP | 0.705 ± 0.0074
SRFILSRLPLLS | 0.595 ± 0.065
SRFRKSSGLLLK | 0.758 ± 0.09
SRFSPSLPPFLP | 0.661 ± 0.055
SRGNIPVCEGWS | 0.742 ± 0.028
SRGQSSNEVSPL | 0.637 ± 0.017
SRGTKAERISIG | 0.654 ± 0.013
SRGWLHVVGGQV | 0.6843 ± 0.004
SRKASWECVRGG | 0.699 ± 0.015
SRLGVIRGIGLV | 0.67 ± 0.025
SRLPRGTYRGCP | 0.711 ± 0.076
SRLYGHDLRCRL | 0.777 ± 0.091
SRNVGRWSLRVV | 0.632 ± 0.024
SRPLFLSLFSSV | 0.599 ± 0.14
SRPPPFFPPASP | 0.682 ± 0.01
SRRLSLSSLAFP | 0.723 ± 0.0074
SRRRRGRGEWFG | 0.722 ± 0.019
SRSPRSRSRHES | 0.69769 ± 0.00032
SRTNVKVRKTGV | 0.6916 ± 0.0059
SRVARWRSPGCC | 0.6474 ± 0.0012
SRVGWSRLGPGL | 0.68 ± 0.022

— the supplement of paper PMC10724198
